This is an account of results in US20220389118A1 (Chugai, published 2022).

Positions count from the first letter of the chain named.

The chains are these.
T1: human FcγRIIa type R (allotype R131) extracellular domain with C-terminal His tag (human, UniProt P12318 34-217)
T1 construct: extracellular domain; also called FcγRIIaR; FcγRIIa R type; not shown: His tag at the C terminus
T1 sequence (looked up): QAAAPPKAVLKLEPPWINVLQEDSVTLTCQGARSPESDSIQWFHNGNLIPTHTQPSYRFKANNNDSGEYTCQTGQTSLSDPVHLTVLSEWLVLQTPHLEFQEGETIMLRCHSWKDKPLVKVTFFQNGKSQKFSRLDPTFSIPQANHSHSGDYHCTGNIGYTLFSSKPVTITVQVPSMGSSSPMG

T2: human FcγRIIa type R extracellular domain with C-terminal His tag (human, UniProt P12318 34-217)
T2 construct: extracellular domain; also called FcγRIIaR; FcgRIIaR
T2 sequence (looked up): T1 sequence (looked up)

T3: human FcγRIIb extracellular domain with C-terminal His tag (human, UniProt P31994 43-217)
T3 construct: extracellular domain; also called FcgRIIb
T3 sequence (looked up): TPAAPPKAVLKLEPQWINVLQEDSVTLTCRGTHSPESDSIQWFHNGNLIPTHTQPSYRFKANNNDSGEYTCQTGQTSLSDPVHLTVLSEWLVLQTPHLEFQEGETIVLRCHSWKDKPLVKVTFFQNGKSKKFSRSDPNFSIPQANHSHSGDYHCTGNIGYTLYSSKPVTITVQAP

B1: IL6R-BP197/IL6R-L (antibody, human IgG1, kappa)
heavy: QVQLQESGPGLVKPSETLSLTCAVSGHSISHDHAWSWVRQPPGEGLEWIGFISYSGITNYNPSLQGRVTISRDNSKNTLYLQMNSLRAEDTAVYYCARSLARTTAMDYWGEGTLVTVSSASTKGPSVFPLAPSSKSTSGGTAALGCLVKDYFPEPVTVSWNSGALTSGVHTFPAVLQSSGLYSLSSVVTVPSSSLGTQTYICNVNHKPSNTKVDKKVEPKSCDKTHTCPPCPAPDYLGDDSVFLFPPKPKDTLMISRTPEVTCVVVDVSDEDGEVKFNWYVDGVEVHNAKTKPREEQDNSTYRVVSVLTVLHQDWLNGKEYKCKVSNDALPKPIEKTISKAKGQPREPQVYTLPPSRDELTKNQVSLTCLVKGFYPSDIAVEWESNGQPENNYKTTPPVLDSDGSFFLYSKLTVDKSRWQQGNVFSCSVMHEALHNHYTQESLSLSP
light: not shown
notes: copies: 2 + 2
B2: IL6R-BP211/IL6R-L (antibody, human IgG1, kappa)
heavy: B1 heavy with Y236L, D239G, D298Y, D328A, K332R
light: not shown
notes: copies: 2 + 2
B3: IL6R-BP107/IL6R-L (antibody, human IgG1, kappa)
heavy: B1 heavy with D235E, Y236L, D239G, D270E, G273P, D298Y, D328K, K332A
light: not shown
notes: IgG1 type
B4: IL6R-BP911/IL6R-L (antibody, human IgG1, kappa)
heavy: B1 heavy with D235E, Y236L, D239G, D270H, G273P, D298Y, D328K
light: not shown
notes: IgG1 type
B5: IL6R-BP118/IL6R-L (antibody, human IgG1, kappa)
heavy: B1 heavy with D235E, Y236L, D239G, D270H, G273P, D298Y, D328S, K332A
light: not shown
notes: IgG1 type
B6: IL6R-BP116/IL6R-L (antibody, human IgG1, kappa)
heavy: B1 heavy with D235E, Y236L, D239G, D270H, G273P, D298Y, D328T, K332A
light: not shown
notes: IgG1 type
B7: IL6R-2B171/IL6R-L (antibody, human IgG1, kappa)
heavy: B1 heavy with D235E, Y236L, D239G, D270H, G273P, D298Y, V325L, D328K, K332A
light: not shown
notes: IgG1 type
B8: IL6R-BP100/IL6R-L (antibody, human IgG1, kappa)
heavy: B1 heavy with D235E, Y236L, D239G, S269A, D270H, G273P, D298Y, D328K, K332A
light: not shown
notes: IgG1 type
B9: IL6R-BP078/IL6R-L (antibody, human IgG1, kappa)
heavy: B1 heavy with D235E, Y236L, D239G, D270H, G273P, D298Y, D328K, K332M
light: not shown
notes: IgG1 type
B10: IL6R-BP126/IL6R-L (antibody, human IgG1, kappa)
heavy: B1 heavy with D235E, Y236L, D239G, D270H, G273P, D298Y, D328L, K332A
light: not shown
notes: IgG1 type
B11: IL6R-BP102/IL6R-L (antibody, human IgG1, kappa)
heavy: B1 heavy with D235E, Y236L, D239G, S269Q, D270H, G273P, D298Y, D328K, K332A
light: not shown
notes: IgG1 type
B12: IL6R-BP117/IL6R-L (antibody, human IgG1, kappa)
heavy: B1 heavy with D235E, Y236L, D239G, D270H, G273P, D298Y, K332A
light: not shown
notes: IgG1 type
B13: IL6R-BP120/IL6R-L (antibody, human IgG1, kappa)
heavy: B1 heavy with D235E, Y236L, D239G, D270H, G273P, D298Y, D328E, K332A
light: not shown
notes: IgG1 type
B14: IL6R-BP103/IL6R-L (antibody, human IgG1, kappa)
heavy: B1 heavy with D235E, Y236L, D239G, S269V, D270H, G273P, D298Y, D328K, K332A
light: not shown
notes: IgG1 type

T4 sequence (P08637 17-208 F176V): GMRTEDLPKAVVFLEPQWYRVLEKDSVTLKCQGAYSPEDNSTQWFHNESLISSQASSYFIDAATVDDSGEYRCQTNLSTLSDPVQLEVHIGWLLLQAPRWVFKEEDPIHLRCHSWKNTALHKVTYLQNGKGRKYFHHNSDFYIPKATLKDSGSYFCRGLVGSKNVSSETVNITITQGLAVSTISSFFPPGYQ

One assay deals with T1, human FcγRIIa type R (allotype R131) …. The experiment in a line: SPR (Biacore), antibody captured, FcγR analyte.
Usually Kd stands for the free concentration of one partner at which half of the binding sites on the other are occupied at equilibrium, for simple one-to-one binding. For B1, the dissociation constant (Kd) amounted to 980 nM.
Still for that read-out and setting: for B2 the value was 4100 nM.

The next assay addresses T4, human FcγRIIIa type V (allotype V158) extracellular domain with C-terminal His tag (human, UniProt P08637 17-208).
T4 construct: extracellular domain; also called FcγRIIIaV; FcγRIIIa V type; not shown: His tag at the C terminus
The assay is described as follows: SPR (Biacore), antibody captured, FcγR analyte.
Molecule B1 displayed an equilibrium dissociation constant (Kd) of 33 µM.
For the molecule B2, the Kd is 73 µM.

In the next assay the target is T2, human FcγRIIa type R extracellular …. The experiment in a line: SPR (Biacore), antibody captured, FcγR as analyte. (In general: In SPR one partner is held on a chip, and binding of the other changes the refractive index at the surface.)
Take B3: the Kd was found to be 12 µM.
Still for that read-out and setting: the value for B4 was 16 µM; that for B5 was 15 µM.
Take B6: the Kd turned out to be 15 µM.
On to B7, for which binding was characterised by a dissociation constant (Kd) of 16 µM.
As to B8, binding was put at a Kd of 7.8 µM.
Take B9: the Kd is 15 µM.
For the molecule B10, the Kd was found to be 11 µM.
Take B11: the affinity, expressed as Kd, was 8.4 µM.
B12 displayed a Kd of 9.2 µM.
For B13, binding was characterised by a dissociation constant (Kd) of 9.6 µM.
Take B14: the equilibrium dissociation constant (Kd) was found to be 11 µM.

The target of another assay is T3, human FcγRIIb extracellular domain with …. The experiment in a line: SPR (Biacore), antibody captured, FcγR as analyte.
Take B3: the “KD(IIb) of parent polypeptide/KD(IIb) of altered polypeptide” value (“KD(IIb)” below) turned out to be 3.3 fold vs IL6R-B3/IL6R-L.
Turning to B4, the “KD(IIb)” value was determined as 3.5 fold vs IL6R-B3/IL6R-L.
As for B5, the “KD(IIb)” value stood at 2.7 fold vs IL6R-B3/IL6R-L.
On the same count and under the same terms, the value for B6 was 2.8 fold vs IL6R-B3/IL6R-L; that for B7 was 2.9 fold vs IL6R-B3/IL6R-L.
For the molecule B8, the “KD(IIb)” value turned out to be 2.9 fold vs IL6R-B3/IL6R-L.
Regarding B9, the “KD(IIb)” value came out at 2.8 fold vs IL6R-B3/IL6R-L.
Turning to B10, the “KD(IIb)” value was 2.2 fold vs IL6R-B3/IL6R-L.
Consider B11, for which the “KD(IIb)” value turned out to be 3.4 fold vs IL6R-B3/IL6R-L and the dissociation constant (Kd) turned out to be 900 nM.
Take B12: the “KD(IIb)” value is 3.9 fold vs IL6R-B3/IL6R-L and the Kd stood at 800 nM.
The like results for B13 were, in that order, 3 fold vs IL6R-B3/IL6R-L and 1000 nM.
B14: the “KD(IIb)” value was 2.5 fold vs IL6R-B3/IL6R-L.
